The data set concerns the molecule itself. Put plainly: SEC; Superdex200; elution volumes of the mutants compared with wild-type MamM-CTD; self-association (dimer). In general terms: SEC sorts molecules by how far they enter the pores of the column.

Where a chain is given by its changes, count along the chain named. Names and notes keep the numbering of the source.

B1: MamM-CTD (cytosolic C-terminal domain of the magnetosome CDF transporter MamM), wild type (domain or fragment, Magnetospirillum gryphiswaldense)
chain: EAVQNRIVEAAERVPGVRGVIHLRARYVGQDIWADMIIGVDPENTVEQAHEICEAVQAAVCGKIRRIESLHVSAEAREIGDTTKPSFSDQPLSFDEVMLSKVDN
notes: MamM, cation diffusion facilitator of Magnetospirillum gryphiswaldense, cytosolic C-terminal domain (CTD); also called wild-type MamM-CTD; apo-MamM-CTD; source: recombinant, purified; expression and purification 'performed as previously described [20], [29], [30]'
By stoichiometry N is commonly meant the number of molecules, sites or subunits per partner or assembly. As to B1, the “stoichiometry N” value is 2.

B2: MamM-CTD V260W mutant (domain or fragment, Magnetospirillum gryphiswaldense)
chain: B1 chain with V46W
notes: MamM, cation diffusion facilitator of Magnetospirillum gryphiswaldense, cytosolic C-terminal domain (CTD) with V260W; The mutation mimics the W325 allele of human ZnT-8; source: recombinant, purified; expression, purification and site-directed mutagenesis 'performed as previously described [20], [29], [30]'
Turning to B2, the “stoichiometry N” value stood at 2.

B3: MamM-CTD V260R mutant (domain or fragment, Magnetospirillum gryphiswaldense)
chain: B1 chain with V46R
notes: MamM, cation diffusion facilitator of Magnetospirillum gryphiswaldense, cytosolic C-terminal domain (CTD) with V260R; The mutation mimics the R325 allele of human ZnT-8; source: recombinant, purified; expression, purification and site-directed mutagenesis 'performed as previously described [20], [29], [30]'
For the protein B3, the “stoichiometry N” value turned out to be 2.

For the origin of these results see article PMC4018254, “Bacterial Magnetosome Biomineralization - A Novel Platform to Study Molecular Mechanisms of Human CDF-Related Type-II Diabetes” (PLoS ONE, 2014).
